The series is described as follows: soluble on expression in E. coli; label from the status in PepcDB or PDB records.
With “MLKKYTRYSNFRLISQIQFQRHIDIFHAITYDNIDGLVAAFVRNEPFDIKDKNGNTPLHLAAKLNRRLLCRAVCVYAAGLDLWNSKNNDGKTPIEMTDDANIKRDLQSISTSRSSVDSHHMAYNKLLIEKKINENEEQNQNQKVILSLDGGGLRVVLQCAILLAVERELGEPLRNRIHWIAGTSCGGIMASSIGVGIDLADALRLYIIIRKRIFGGNNQKFPKHSALGIETCLQEVMGSKTLMSKCTAHRLVVTTAKVTLAPPQLVLFRSYAPRIDSKEFEQLGYFNPNKILLWKAIRCTTAAPTYFPSFNGMADGALFCNNPCIMVMTEFAKLKKIENYRGKNNTDEIGCVISVGTGIEPSYPINGIDINLTSGLTGITGNWREIIENTKNLITVFLYQCTSSHNVHVGQSREWCHSMQVPFFRFSPHLAAPFELDNCKIEDITNAMFDNEVYIRTEIKQHISDLCRLLKSMPRNTEPCNYSKITGGKGSKVGSPKSDKK”, the “soluble on expression in E. coli” value was “not soluble”.

As for “MGSDKIHHHHHHVDIQALKKVSELDVFSLLVFKLIYETGFANFAAKELAVSAPKISRCLTSLRAIFNDELFFRRQQGLKPTPLAERLYQPVCQLCDMVSQIERVADDRLNHHQTPILHIAVSPSIITSVAIALSKLPRDVIGKVKLHSWQADTEELIYNGELDFGIGFETQDTHGLEAYPIANVTSLCVVGNTNHLFWAGAEQIKLEDIIQHPIVYLRCKGFNNRIDPLELYCQTHGLLLEDIECARKLEDWYWHILTMDSLAITICNEGSFAQQIPQLRVERLPQSEFTKLNSVMAMPSYCLIERAEHYRRYSLNVKEMIIDIIKSLLV”, the “soluble on expression in E. coli” value was “not soluble”.

In the case of “MITAIVFDVDDTIYDQQAPYRIAMEKCFPDFDMSVMNQAYIRFRHYSDVGFPRVMAGEWTTEYFRFWRCKETLLEFGYREIDEAAGVHFQEVYEHELENITMLDEMRMTLDFLKSKNVPMGIITNGPTEHQLKKVRKLGLYDYIDAKRVIVSQATGFQKPEKEIFNLAAEQFDMNPQTTLYVGDSYDNDIMGAFNGGWHSMWFNHRGRQLKPGTKPVYDVAIDNFEQLFGAVKVLFDLPDNKFIFDVNDKKNPILQMGINNGLMMAAERLLESNMSIDKVVILLRLTKQQEKVLRLKYAR”, the “soluble on expression in E. coli” value is on record as “not soluble”.

For the sequence “MGSDKIHHHHHHMHSDEEIFKETTPKALLQLLKKDYYFHDYCYQEIIPRGKEIKMNNSKGFQIYLVESGYFSYCLQNEYGDSGIISFVGGEIAINLIPIIKEEPEESVLRSLTEVHCWVLDPDFVERVLDESGQKAKYLLSNLLYTRKVYFKASKRNFMKKELRIRACLKELGLYMGRVTKEKEFILPDEINNSILAQYANTTREYTNIIVLKLRKEGILDDSHKPWVIKKIDIL”, the “soluble on expression in E. coli” value is “not soluble”.

For the sequence “MSLTPLMVNGILGESVTLPLEFPAGEKVNFITWLFNETSLAFIVPHETKSPEIHVTNPKQGKRLNFTQSYSLQLSNLKMEDTGSYRAQISTKTSAKLSSYTLRILRQLRNIQVTNHSQLFQNMTCELHLTCSVEDADDNVSFRWEALGNTLSSQPNLTVSWDPRISSEQDYTCIAENAVSNLSFSVSAQKLCE”, the “soluble on expression in E. coli” value is “soluble”.

On to “MSTKELEERKVCFFCKILGFLSFPAIKIRIGTPANTISRHLTGFASYCIHLAVGVAHTRPEPELADDSRCYGNILDLVKRKKVTNWTQTRLVVEGKLGEGLRGIAYKVKHRNTMKCLKLLPLSWTSRNKEALEDLVALRSLKTIKKETPNYLTFFDSFVLTNLPASTQDKLNQLDPQCPATHYLGLLVELGSNSLDNTMLTTAVEGLSIVKQLVLSLVIAKRRLDTNHNDVHPGNVLVKRSASPKTLKYTLDGKVIRIPSHGLVVGIIDFSEASFGRANGNSDVGFLSFITEEISKTLSKAENRTFQTAIDGLTDARSITAIYPNASIFKKH”, for which the “soluble on expression in E. coli” value was “not soluble”.

Consider “MEKTLETVPLERKKREKEQFRKLFIGGLSFETTEESLRNYYEQWGKLTDCVVMRDPASKRSRGFGFVTFSSMAEVDAAMAARPHSIDGRVVEPKRAVAREESG”, for which the “soluble on expression in E. coli” value is recorded as “soluble”.

For the sequence “SDENNGLLLLELNPPNPWDLQPRSPEELAFGEVQITYLTHACMDLKLGDKRMVFDPWLIGPAFARGWWLLHEPPSDWLERLCQADLIYISHLHSDHLSYPTLKKLAGRRPDIPIYVGNTERPVFWNLNQSGVQLTNINVVPFGIWQQVDKNLRFMILMDGVHPEMDTCIIVEYKGHKILNIVDCTRPNGGRLPMKVALMMSDFAGGASGFPMTFSGGKFTEEWKAQFIKTERKKLLNYKARLVKNLQPRIYCPFAGYFVESHPSDKYIKETNTKNDPNELNNLIKKNSDVITWTPRPGATLDLGRMLKDRTDSKGIIEPPEGTKIYKDSWDFEPYLEILNAALGDEIFLHSSWIKEYFTWAGFKDYNLVVRMIETDEDFNPFPGGYDYLVDFLDLSFPKERPQREHPYEEIHSRVDVIRHVVKNGLLWDELYIGFQTRLQRDPDIYHHLFWNHFQIKLPLTPPNWKSFLMCCEQNGPVILQECKTT”, the “soluble on expression in E. coli” value is given as “soluble”.

For “MGSDKIHHHHHHMAAKIITVFNQKGGCGKTTVSMHLAGTLGLRGARSMLVDMDEQGTATRWAAQASDERPFPASVIGLAPSGGAMHREVRKFVQDYDYIVVDCPPAVHSAAPSSALLISDLAIIPVVPSPPDLWAAVAAKTLAQHAQVQNETLLIRVMANMVQRRVSIARQAIEILGDDGEVPLLNSMIGSRSAFRECQAIGCTVHGVAGAREAVQEVDMMVDEVLSLIEH”, the “soluble on expression in E. coli” value is “not soluble”.

As to “MSLIKVIDAHVHYHIYARKIPEHCKEFLENVEGTRMTLKNDNVEIEKILLVPSHPCHSEDCYDGFYIDYEERKRNPDLYMQWGEVNPLKCDVKRELERQYSLGIIGIKLHPVHHTFKPNAYREEEGGLKQLLYIYEFAEDHGLPILIHTGTSIGVGSRNKYADPIYADDIAKDFPKLRIILAHAGRPLWYNTAFHMARFTQNIFLEISSIPPKNILKVLPRIHEISDKVIYGSDFPAFKGQDLAEYAYQVYNVLKNEKIMRDNAKRILKISEGHHHHHH”, the “soluble on expression in E. coli” value is recorded as “not soluble”.

For “MKNKLLFMMLTILGAPGIAAAAGYDLANSEYNFAVNELSKSSFNQAAIIGQAGTNNSAQLRQGGSKLLAVVAQEGSSNRAKIDQTGDYNLAYIDQAGSANDASISQGAYGNTAMIIQKGSGNKANITQYGTQKTAIVVQRQSQMAIRVTQR”, the “soluble on expression in E. coli” value is “not soluble”.

Take “MGSDKIHHHHHHMKASLEQSSLPCRRFGRTGLSMPVLSLGGMRFQQSWTDLEAEVITSESQQLLKDILERAVACGFHHVETARHYGSSERQLGWALRDVLDPQRLLQSKVPPREDPKVFEAELALSFERLGCERLDLVAIHGLNLSEHLEQTLRPGGCMDVLRRWQGDGRIGHVGFSTHGPTDLIVQAIETDAFDYVNLHWYFIYQDNDPALDAAARHDLGVFIISPTDKGGHLHSPSSQLLELCAPLHPIVFNDLFCLQDPRVHTISVGAARPSDLDRHLEAVDLLQSAAELLPPVQQRLVDAAQLALGEAWWTSWQRGLPPWQESPGEINLPILLWLHNLVEAWGMEGYAKARYGLLGSGSHWFPGANAEALDADVSETALREVLVNSPWCDQIPGLLRRLRNRLGGHPQQRLTSV”: the “soluble on expression in E. coli” value was “not soluble”.

On to “GPGSMQQPTAQEEQYVNVPVPLTGEEKGWQEVAPNRYIRYEQFGGSDAEMNFIVNLFTAELTEPYSSFTYQYFVFGWPDLCITAFGVESETKPDNSVVGEKVGAVVSRVTRKGAGMPLRGYVAMFAVVPKFRGYRLGSRLVSLTVELMRAKGCDEVYLETPTSNVRALGLYLNLGFAKTKYLPRYYLDHSDAVRLKLWLKDAIPKSVPETASTAGVEKA”, for which the “soluble on expression in E. coli” value is “soluble”.

Turning to “MNIQWFPGHMAKTRRILAENLKMVDVVVELLDARIPASSKNPEIDGIVKNKPKIVVLNKADLADEKISNEWSKWYNSQGYATIFIDSIKGTGIKQLKDQMRDIMKDRIERDRQRGRIFRPIRTMIVGIPNVGKSSLINKIAGKKSAVTGDRPGVTRNKQWINVNNEIQLMDTPGILWPKFEDKTVGINLAVTGAIKDEIIDTVELASILLEHLSKTYPENIKKRYKLESLQDKKGYELLEEAGKKRGCIISGGEVDLTRIAAIVLDEFRGGKIGRITLERPGDAVQELVAD”, the “soluble on expression in E. coli” value is “not soluble”.

Turning to “MNPEVTVLMSVYNDKNYLSESIESILNQTFENFEFLIINDASTDGSGELLEEYSKKDKRIRLIHNKNNRGLSYSLAEGVSLAKAPWIARMDADDVSFKDRLAVQMDHVKAHSELDILGSYVIDIDDKGNELEIRKVPTTHKEIANLIWTCPFIHPTVLFKKDSIIKAGSYDRNLRRRQDYDLWFRCLEAKLKFENIDKPLLYYRSTDDYYKKNNFKVQVQQAKMGFAGARRVKAKPIAYIGITVAFIKGILPYHIRKPLSQLLKKVDPRRALEHHHHHH”, the “soluble on expression in E. coli” value is “soluble”.

Turning to “MLNEFDQYLHERYLSGKARKDRWYWNNSIQRGRSTAVRENWQWKPAVAYCRYADDFVLIVKGTKAQAEAIREECRGVLEGSLKLRLNMDKTKITHVNDGFIFLGHRIIRKRSRYGEMRVVSTIPQEKARNFAASLTALLSGNYSESKVDMAEQLNRKLKGWAMFYQFVDFKAKVFSYIDRVVFWKLAHWLARKYRTGIASLMRWWCKSPKPGQSKTWVLFGKTNHGKLSGEILYRLVGQGKKLFRWRLPEGNPYLRTETRNTYTSRFTEVAMAFASILEHHHHHH”, the “soluble on expression in E. coli” value is listed as “soluble”.

In the case of “QYRPMSEKQFSRPVLIVPPQINKYYIFDLSPANSFVQYALKNGLSTFIISWRNPDIRHREWGLSSYVEAAEQAMNICRAISGAREVNLVGACAGGLTIAALLGHLQVKRQTRRVASATYMVSLLDSQIDSPATLFIDEQALEAAKRRSYQRGVLEGSEMSRVFSWMRPNDLIWTYWINNYLLGKSPPPFDILYWNNDTTRLPAALHGDLLDFFKHNPLSHAGGLEVCGTPIDLQKVTVDSFSVAGINDHITPWDSVYRSTLLLGGDRRFVLANSGHVQSILNP”, the “soluble on expression in E. coli” value was “not soluble”.

For the sequence “MSLSQASSTDTPFVIAGRTYGSRLLVGTGKYKDLDETRRAIEASGAEIVTVAVRRTNIGQNPDEPNLLDVIPPDRYTILPNTAGCYDAVEAVRTCRLARELLDGHNLVKLEVLADQKTLFPNVVETLKAAEQLVKDGFDVMVYTSDDPIIARQLAEIGCIAVMPLAGLIGSGLGICNPYNLRIILEEAKVPVLVDAGVGTASDAAIAMELGCEAVLMNTAIAHAKDPVMMAEAMKHAIVAGRLAYLAGRMPRKLYASASSPLDGLIDEGGSHHHHHH”, the “soluble on expression in E. coli” value is reported as “soluble”.

On to “MVPLVAVVSGPRAQLFACLLRLGTQQVGPLQLHTGASHAARNHYEVLVLGGGSGGITMAARMKRKVGAENVAIVEPSERHFYQPIWTLVGAGAKQLSSSGRPTASVIPSGVEWIKARVTELNPDKNCIHTDDDEKISYRYLIIALGIQLDYEKIKGLPEGFAHPKIGSNYSVKTVEKTWKALQDFKEGNAIFTFPNTPVKCAGAPQKIMYLSEAYFRKTGKRSKANIIFNTSLGAIFGVKKYADALQEIIQERNLTVNYKKNLIEVRADKQEAVFENLDKPGETQVISYEMLHVTPPMSPPDVLKTSPVADAAGWVDVDKETLQHRRYPNVFGIGDCTNLPTSKTAAAVAAQSGILDRTISVIMKNQTPTKKYDGYTSCPLVTGYNRVILAEFDYKAEPLETFPFDQSKERLSMYLMKADLMPFLYWNMMLRGYWGGPAFLRKLFHLGMS”, for which the “soluble on expression in E. coli” value was “not soluble”.

On to “MITEKRHELILTELSKQDFLTLQELIERTGCSASTIRRDLSKLQKFGKLKRVHGGATLNQSSALEPNLADKRSTNLREKQEIGRLAASQIENRDCVFLDAGSTTLEMIPYIKASDIIVVTNGLTHVEELLKHGIRTLIIGGEVKSTTFATVGASALETLRRYRFDKVFLGMNGIDLKYGLTTPDEQEAIIKHHAMQLGTQVYVLIDHDKYEKVYFAHVPLEEGVSIITSKKAQSLKQFHLFAGQYNFIGGTLLEHHHHHH”, for which the “soluble on expression in E. coli” value is “soluble”.

For the origin of these results see the DeepSol protein solubility set.
